Test [1] deals with T1, CADM1-His (Acro Biosystems) (human, UniProt Q9BY67 45-374).
T1 construct: Bought; also called CADM1/IGSF4A; not shown: His tag of the bought protein
T1 sequence: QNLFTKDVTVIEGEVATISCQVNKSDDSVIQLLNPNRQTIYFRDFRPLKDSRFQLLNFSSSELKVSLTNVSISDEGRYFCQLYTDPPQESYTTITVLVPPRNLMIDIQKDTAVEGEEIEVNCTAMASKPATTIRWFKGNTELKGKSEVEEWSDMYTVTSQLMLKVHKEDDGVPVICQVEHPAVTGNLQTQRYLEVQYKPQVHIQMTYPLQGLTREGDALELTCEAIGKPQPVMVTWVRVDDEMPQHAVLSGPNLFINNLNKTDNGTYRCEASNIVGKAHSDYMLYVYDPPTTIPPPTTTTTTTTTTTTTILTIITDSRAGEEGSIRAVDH
In words: ELISA on coated CADM1-His. The method, then: (§1) Recombinant purified ECDs (50-150 ng) of each putative target protein were coated, incubated with 150 ng of the indicated primary antibody, and binding was detected using a peroxidase-conjugated anti-human Fab secondary antibody. Heatmap represents averages of technical triplicates. (8B) Target validation via siRNA knockdown. H929 cells were transfected with siRNA pools targeting the putative antibody targets ICAM1, CADM1, and PTPRG. Cells were then subjected to cognate IgG binding analysis via flow cytometry. (NT, non-targeting siRNA).
(§2) ELISA ELISA was conducted as described previously. Briefly, 50-150 ng of antigen was coated overnight in half-area 96-well plates at 4° C., blocked with 3% BSA at 37° C. for 1 h, and 150 ng of chimeric rabbit/human IgG1 was added, incubating for 2 h at 37° C. […] After incubating at 37° C. for 15 min-1 h (depending on intensity of controls), data were acquired using a SpectraMax M5 plate reader (Molecular Devices).

Test [2] has as its target T2, SELL (L-Selectin).
T2 construct: coated protein in the ELISA; also called SELL-Fc-His (R&D Systems)
T2 chain: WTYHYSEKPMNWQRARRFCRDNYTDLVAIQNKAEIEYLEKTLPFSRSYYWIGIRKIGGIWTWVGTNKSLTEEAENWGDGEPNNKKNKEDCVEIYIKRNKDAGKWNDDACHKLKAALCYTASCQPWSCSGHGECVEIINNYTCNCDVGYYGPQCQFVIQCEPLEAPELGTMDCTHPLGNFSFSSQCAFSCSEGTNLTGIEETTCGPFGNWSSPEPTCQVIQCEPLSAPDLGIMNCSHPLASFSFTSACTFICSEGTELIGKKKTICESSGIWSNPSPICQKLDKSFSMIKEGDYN
In words: ELISA on coated SELL-Fc-His. The method, then: as §1, §2

The target in test [3] is T3, SLAMF7.
T3 construct: coated protein in the ELISA; also called SLAMF7-StrepTag
T3 chain: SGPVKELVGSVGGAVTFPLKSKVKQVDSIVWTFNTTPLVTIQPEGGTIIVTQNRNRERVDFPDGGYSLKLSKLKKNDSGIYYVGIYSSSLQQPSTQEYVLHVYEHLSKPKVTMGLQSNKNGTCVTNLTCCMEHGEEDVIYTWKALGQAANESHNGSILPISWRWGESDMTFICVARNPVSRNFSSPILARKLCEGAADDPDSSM
As to the kind of experiment: ELISA on coated SLAMF7-StrepTag. The method, then: as §1, §2

Test [4] has as its target T4, GARS, endogenous in H929 multiple myeloma cells (human, UniProt P41250 37-739, limits assumed).
T4 construct: Native protein pulled down from H929 lysates; also called Glycyl-tRNA synthetase; GlyRS
T4 sequence: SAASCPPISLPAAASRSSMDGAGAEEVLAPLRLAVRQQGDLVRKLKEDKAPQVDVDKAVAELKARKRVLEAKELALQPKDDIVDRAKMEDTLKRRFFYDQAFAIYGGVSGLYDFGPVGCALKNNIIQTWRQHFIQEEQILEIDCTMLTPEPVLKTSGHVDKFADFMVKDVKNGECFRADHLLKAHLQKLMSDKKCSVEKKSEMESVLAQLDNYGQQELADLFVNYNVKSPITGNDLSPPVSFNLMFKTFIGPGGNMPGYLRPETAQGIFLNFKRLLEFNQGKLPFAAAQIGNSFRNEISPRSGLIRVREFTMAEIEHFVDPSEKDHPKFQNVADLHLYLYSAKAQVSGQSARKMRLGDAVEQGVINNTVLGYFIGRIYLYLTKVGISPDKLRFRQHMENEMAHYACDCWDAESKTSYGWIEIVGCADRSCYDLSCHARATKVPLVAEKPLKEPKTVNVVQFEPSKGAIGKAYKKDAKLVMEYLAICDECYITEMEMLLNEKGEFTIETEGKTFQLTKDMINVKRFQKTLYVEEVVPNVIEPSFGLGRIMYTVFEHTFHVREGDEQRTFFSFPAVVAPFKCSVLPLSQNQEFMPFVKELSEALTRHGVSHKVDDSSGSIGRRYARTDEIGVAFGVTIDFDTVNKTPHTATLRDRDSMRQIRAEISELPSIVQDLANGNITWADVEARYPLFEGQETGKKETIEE
In words: flow cytometry, H929 + GARS siRNA (siRNA against the putative target); None 452.

B1: HW-81 chimeric rabbit-human IgG1 LA/LA/PG (antibody, V domains shown)
VH: QKQLVESGGGLVTPGGTLTLTCTVSGFSLSSNGVSWVRQAPGKGLEYIGLIRSIGSTYYATWAKGRFTISKTSTTVDLKITSPTTEDTATYFCARGGYRNGFKLWGPGTLVTVSS
VL: QPVLTQSPSVSAALGASAKLTCTLSSAHKTYYIEWYQQQHPGKAPRYLMQLQSDGSYTKGTGVPDRFSGSSSGADRYLIISSVQAEDEADYICGVIDSAVYVFGGGTQLTVTG
notes: Fc-silenced (L234A/L235A/P329G) IgG1, lambda; Alexa Fluor 647-labeled in single-step flow cytometry; Cluster C-45
Turning to B1, the binding result in test [1], in test [2] and in test [3] was “no binding (tested: 150 ng IgG1 per well)” each time. Further, the “mAb binding (MFI)” value in test [4] is 216000.

B2: HW-56 chimeric rabbit-human IgG1 LA/LA/PG (antibody, V domains shown)
VH: QSVKESEGGLFKPTDTLTLTCTASGFTVSTNAVTWVRQAPGNGLEYIGTIGRSGSAYFASWAKRRSTLTRDINLNTVTLKMTSLTAADTATYFCVRGSPGYRTAISIWGPGTLVTISS
VL: AVMTQTPSSTSAAVEGTVTINCQASQSISNRLSWFQQKPGQPPKLLIYQASTLASGVPSRFKGSGSGTEFTLTISGVQREDAATYYCLGSYSSSDASFGGGTKLEIKR
notes: Fc-silenced (L234A/L235A/P329G) IgG1, kappa; Alexa Fluor 647-labeled in single-step flow cytometry; Cluster C-45
With B2, in test [1], the binding result is listed as “no binding (tested: 150 ng IgG1 per well)”. In addition, in test [4], the “mAb binding (MFI)” value is 413000.

B3: HW-28 chimeric rabbit-human IgG1 LA/LA/PG (antibody, V domains shown)
VH: QKQLVESGGRLVTPGTPLTLTCTASGFSLSSNAMSWVRQAPGEGLQWIGTISSGGSTYYASWAKGRFTISKTSTTVTLKMTSLTTEDTATYFCARGADLHRLWGPGTLVTVSS
VL: SFVLTQPASVQVNLGQTVSLTCTGKPLSRSFASWYQQKPGQAPVLVIYRDTSRPSGVPDRFSGSSSGNTATLTISGAQAGDEADYYCATSDGSGSSYQYVFGGGTQLTVTG
notes: as for B1
Take B3: the “mAb binding (MFI)” value in test [4] turned out to be 170000.

B4: HW-45 chimeric rabbit-human IgG1 LA/LA/PG (antibody, V domains shown)
VH: QKQLVESGGRLVTPGTPLTLTCTVSGFSLSSYAMGWFRQAPGKGLEWIGIINSYGSTYYASWAKGRFTISKTSTTVDLKITSPTTEDTATYFCGRRIGSARFDPWGPGTLVTVSS
VL: SFVLTQPASVQVNLGQTVSLTCTADTLSRSYASWYQQKPGQAPVLLIYRDTRRPSGVPDRFSGSSSGNTATLTISGAQAGDEADYYCATSDGSGSSYRLVFGGGTQLTVTG
notes: Fc-silenced (L234A/L235A/P329G) IgG1, lambda; Alexa Fluor 647-labeled in single-step flow cytometry; Prototype of cluster C-45
Regarding B4, the “mAb binding (MFI)” value in test [4] was determined as 76900.

B5: HW-16 chimeric rabbit-human IgG1 LA/LA/PG (antibody, V domains shown)
VH: QSLEESGGRLVTPGTPLTLTCTASGFSLSSYAMSWVRQAPGKGLEWIGTMPTGGGTYYASWAKGRFTISKTSTTVDLQITSPTTEDTATYFCAKHWNIWGPGTLVTISS
VL: DIVLTQTPSSTSTAVGDTVTINCRASQSIGRNLAWFQQKPGQPPKLLIYRASNLASGVPSRFKGSGSRTQFTLTISGVQREDAATYYCLGSYSSSDTAFGGGTELEILR
notes: as for B2
With B5, the binding result in test [1] is given as “no binding (tested: 150 ng IgG1 per well)”. Moreover, the “mAb binding (MFI)” value in test [4] stood at 155000.

B6: HW-8 chimeric rabbit-human IgG1 LA/LA/PG (antibody, V domains shown)
VH: QSLEESGGRLVTPGTPLTLTCTVSGFSLSSYAMSWVRQAPGKGLEWIGAISTGGSTTYASWAKGRFTISKTSSTTVDLKMTSLTTEDTATYFCVRHFRLWGPGTLVTISS
VL: QVLTQTPSSVSAAVGGTVTIKCQASQSIGSALAWFQQKPGQRPKLLIYRASNLASGVPSRFKGSGSGTEFALTISGVQREDAATYYCLGGAAAVWAFGAGTNVEIKR
notes: as for B2
B6: the binding result in test [2] and in test [3] was “no binding (tested: 150 ng IgG1 per well)” in each case. Further, the “mAb binding (MFI)” value in test [4] amounted to 109000.

Values taken from patent US20260049134A1 (UNIVERSITY OF FLORIDA RESEARCH FOUNDATION, published 2026).
